Measurements reported in the Immune Epitope Database (IEDB).

How the values were obtained:
[1] = target: HLA-A*03:01; test: IEDB peptide-MHC binding, purified MHC/competitive/radioactivity; filed as Kd, often an IC50 or EC50 that approximates it; ≥ and ≤ were set here for values at or beyond the usual limits of such assays; conditions: source organism: Homo sapiens
[2] = target: HLA-B*07:02; test: as above; conditions: source organism: Homo sapiens
[3] = target: HLA-A*01:01; test: as above
[4] = target: HLA-A*03:01; test: IEDB peptide-MHC binding, purified MHC/competitive/radioactivity; ≥ and ≤ were set here for values at or beyond the usual limits of such assays; conditions: source organism: Homo sapiens
[5] = target: HLA-B*07:02; test: as above; conditions: source organism: Homo sapiens
[6] = target: HLA-A*02:01; test: as above; conditions: source organism: Homo sapiens

| Sequence | Kd [1] [µM] | Kd [2] [µM] | Kd ([3]; source organism: Homo sapiens) [µM] | IC50 [4] [µM] | IC50 [5] [µM] | IC50 [6] [µM] | Kd ([3]; source organism: Hepatitis B virus subtype adyw) [µM] |
| --- | --- | --- | --- | --- | --- | --- | --- |
| EADPTGHSY | ≥ 5 | ≥ 5 |  |  |  |  |  |
| FLPSDFFPSV |  |  |  |  |  |  | ≥ 5 |
| RVMAPRALL |  |  | ≥ 5 | 0.905 | 0.0046 |  |  |
| SLLPAIVEL | ≥ 5 | ≥ 5 | ≥ 5 |  |  | 0.024 |  |

Now from value to sequence, other results behind:

| Kd [1] [µM] | Kd [2] [µM] | Kd ([3]; source organism: Homo sapiens) [µM] | IC50 [4] [µM] | IC50 [5] [µM] | IC50 [6] [µM] | Sequence | Kd ([3]; source organism: Hepatitis B virus subtype adyw) [µM] |
| --- | --- | --- | --- | --- | --- | --- | --- |
| ≥ 5 | ≥ 5 | 4.31 |  |  |  | LLDVPTAAV |  |
| ≥ 5 | ≥ 5 | ≥ 5 |  |  |  | YLLPAIVHI |  |
